Experimental data published in paper PMC5336481 (Nature structural & molecular biology, 2017).
Each block holds one molecule with its values, some of them ahead of it.

Key:
[1] = target: full-length C. elegans TRPML1 (CUP-5), WT (C. elegans); experiment: cryo-EM structure
[2] = target: T1, human TRPML1 protein (SDS-PAGE, data not shown) (human), Q9GZU1; experiment: reducing SDS-PAGE; details: remark: other sources report otherwise
T1 chain: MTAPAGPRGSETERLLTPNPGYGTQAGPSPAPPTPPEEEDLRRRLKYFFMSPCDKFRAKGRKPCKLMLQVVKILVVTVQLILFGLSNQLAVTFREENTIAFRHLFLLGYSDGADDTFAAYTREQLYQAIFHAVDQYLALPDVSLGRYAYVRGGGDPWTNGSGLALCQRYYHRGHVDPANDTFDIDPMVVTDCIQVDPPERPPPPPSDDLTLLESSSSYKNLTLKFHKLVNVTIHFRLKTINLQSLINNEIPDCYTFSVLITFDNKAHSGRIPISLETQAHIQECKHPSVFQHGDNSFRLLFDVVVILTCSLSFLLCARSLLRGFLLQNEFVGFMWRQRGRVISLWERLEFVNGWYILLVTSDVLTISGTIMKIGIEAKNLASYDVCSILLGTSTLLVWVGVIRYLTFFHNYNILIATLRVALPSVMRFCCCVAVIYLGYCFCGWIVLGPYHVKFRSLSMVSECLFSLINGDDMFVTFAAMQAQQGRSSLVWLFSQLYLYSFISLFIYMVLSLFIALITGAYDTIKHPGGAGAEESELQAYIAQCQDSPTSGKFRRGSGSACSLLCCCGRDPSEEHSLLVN

crystal structure = target: the molecule itself; experiment: crystal structure

- stoichiometry N [1]: 4
Molecule: full-length C. elegans TRPML1 (CUP-5), WT (natural protein)

- stoichiometry N [2]: 4
B1: human TRPML1 protein (SDS-PAGE, data not shown), Q9GZU1 1-580 (natural protein)
chain: T1 chain

B2: human TRPML1 I-II linker (G84-S296) (domain or fragment, UniProt Q9GZU1 84-296, looked up)
chain: GLSNQLAVTFREENTIAFRHLFLLGYSDGADDTFAAYTREQLYQAIFHAVDQYLALPDVSLGRYAYVRGGGDPWTNGSGLALCQRYYHRGHVDPANDTFDIDPMVVTDCIQVDPPERPPPPPSDDLTLLESSSSYKNLTLKFHKLVNVTIHFRLKTINLQSLINNEIPDCYTFSVLITFDNKAHSGRIPISLETQAHIQECKHPSVFQHGDNS
- stoichiometry N (crystal structure): 4
